Laboratory results: patent US20050014931A1 (ABGENIX, published 2005)

Target: T1, Tetanus toxoid (UniProt P04958 2-1315)
T1 construct: also called TT
Test: ELISA screen of hybridoma supernatants

T1 sequence (P04958 2-457 limits assumed, chain 1 of 2): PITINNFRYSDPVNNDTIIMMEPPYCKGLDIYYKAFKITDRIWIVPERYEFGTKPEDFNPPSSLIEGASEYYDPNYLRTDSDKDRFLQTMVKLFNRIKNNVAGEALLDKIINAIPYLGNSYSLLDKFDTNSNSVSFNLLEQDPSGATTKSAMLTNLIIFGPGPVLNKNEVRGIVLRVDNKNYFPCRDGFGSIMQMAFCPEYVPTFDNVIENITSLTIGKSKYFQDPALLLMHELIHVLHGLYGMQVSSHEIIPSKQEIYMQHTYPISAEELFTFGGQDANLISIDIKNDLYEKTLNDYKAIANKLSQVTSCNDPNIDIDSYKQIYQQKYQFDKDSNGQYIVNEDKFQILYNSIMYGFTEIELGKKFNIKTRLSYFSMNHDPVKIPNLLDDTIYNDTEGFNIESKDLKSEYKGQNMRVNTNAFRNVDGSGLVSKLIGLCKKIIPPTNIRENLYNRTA
T1 sequence (P04958 458-1315 limits assumed, chain 2 of 2): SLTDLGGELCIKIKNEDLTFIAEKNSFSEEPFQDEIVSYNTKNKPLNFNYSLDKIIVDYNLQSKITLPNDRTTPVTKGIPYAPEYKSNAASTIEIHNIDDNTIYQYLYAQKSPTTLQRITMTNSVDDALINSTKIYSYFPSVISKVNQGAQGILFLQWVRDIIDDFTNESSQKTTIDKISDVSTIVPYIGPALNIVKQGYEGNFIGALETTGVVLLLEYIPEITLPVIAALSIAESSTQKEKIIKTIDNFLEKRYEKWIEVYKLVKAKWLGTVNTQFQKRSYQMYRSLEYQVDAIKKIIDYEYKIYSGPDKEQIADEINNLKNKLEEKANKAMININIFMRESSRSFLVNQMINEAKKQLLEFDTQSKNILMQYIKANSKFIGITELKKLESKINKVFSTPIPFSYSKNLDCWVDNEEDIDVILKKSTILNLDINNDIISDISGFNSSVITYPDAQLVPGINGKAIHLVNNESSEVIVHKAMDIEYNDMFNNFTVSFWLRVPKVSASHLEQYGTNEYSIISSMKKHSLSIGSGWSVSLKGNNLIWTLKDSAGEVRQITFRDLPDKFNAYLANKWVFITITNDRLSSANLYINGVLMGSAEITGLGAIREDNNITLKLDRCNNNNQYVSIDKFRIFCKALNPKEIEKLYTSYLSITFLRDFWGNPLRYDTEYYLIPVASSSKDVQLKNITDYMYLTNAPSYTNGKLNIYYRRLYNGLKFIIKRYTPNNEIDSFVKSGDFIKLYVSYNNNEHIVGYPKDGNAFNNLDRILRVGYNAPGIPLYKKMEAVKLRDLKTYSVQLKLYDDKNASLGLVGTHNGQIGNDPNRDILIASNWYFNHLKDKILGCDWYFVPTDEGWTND

| Binder | binding result |
| --- | --- |
| Mab 1F10/7C5 (antibody, V domains shown, also called Mab 7C5) VH: not shown VL: DIELTQSPLSLPVTLGQPASISCRSSQSLVYSDGNTYLNWFQQRPGQSPRRLIYKVSNWDSGVPDRFSGSGSGTDFTLKISRVEAEDVGVYYCMQGTHWPRTFGQGTKVEIKR | no binding |
| Mab 1A2 (antibody, V domains shown) VH: not shown VL: DIELTQSPDFQSVTPKEKVTITCRASQSIGSSLHWYQQKPDQSPKLLIKYASQSFSGVPSRFSGSGSGTDFTLTINSLEAEDAATYYCHQSSSLPRTFGQGTKVEIKR | no binding |
